In the supplement of paper PMC10567573:

B1: SETD8 (parent)
chain: FVVEYHGDLIEITDAKKREALYAQ

Variants of: B1
Assay: protein stability index of a GFP-peptide fusion (GPS, HEK-293T) (PSI 1-6); higher = more stable
Details: c terminus: a fixed tail appended
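Note: lentivirally expressed fusions sorted by FACS into six bins by GFP to DsRed ratio, PSI derived from sequencing read proportions per bin multiplied by bin number.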

Variant	protein stability index
FVVEYHGDLIEITDARKREALYAQ [K16R]	2.07
FVVEYHGDLIEITDAFKREALYAQ [K16F]	2.13
FVVEYHGDLIEITDAEKREALYAQ [K16E]	2.08
FVVEYHGDLIEITDAAKREALYAQ [K16A]	1.7
FVVEYHGDLIEITDAVKREALYAQ [K16V]	1.76
FVVEYHGDLIEITDAMKREALYAQ [K16M]	1.59
FVVEYHGDLIEITDAIKREALYAQ [K16I]	1.78
FVVEYHGDLIEITDAKKSEALYAQ [R18S]	2.04
FVVEYHGDLIEITDAKKTEALYAQ [R18T]	1.57
FVVEYHGDLIEITDAKKAEALYAQ [R18A]	1.74
FVVEYHGDLIEITDAKKCEALYAQ [R18C]	2.32
FVVEYHGDLIEITDAKKVEALYAQ [R18V]	1.82
FVVEYHGDLIEITDAKKIEALYAQ [R18I]	3.16
FVVEYHGDLIEITDAKKDEALYAQ [R18D]	2.27
FVVEYHGMLIEITDAKKREALYAQ [D8M]	3.28
FVVEYHGTLIEITDAKKREALYAQ [D8T]	1.45
FVVEYHGHLIEITDAKKREALYAQ [D8H]	1.56
FVVEYHGSLIEITDAKKREALYAQ [D8S]	2.33
FVVEYHGALIEITDAKKREALYAQ [D8A]	1.65
FVVEYHGGLIEITDAKKREALYAQ [D8G]	2.01
FVVEYHGQLIEITDAKKREALYAQ [D8Q]	1.59
FVVEYHGCLIEITDAKKREALYAQ [D8C]	2.01
FVVEYHGFLIEITDAKKREALYAQ [D8F]	2.77
FVVEYHGDLIEITDAKKREACYAQ [L21C]	1.82

Variant	protein stability index
FVVEYHGDLIEITDAKKREAIYAQ [L21I]	1.36
FVVEYHGDLIEITDAKKREAAYAQ [L21A]	2.01
FVVEYHGDLIEITDAKKREAWYAQ [L21W]	2.22
FVVEYHGDLIEITDAKKREAQYAQ [L21Q]	2.21
FVQEYHGDLIEITDAKKREALYAQ [V3Q]	2.32
FVEEYHGDLIEITDAKKREALYAQ [V3E]	2.83
FVAEYHGDLIEITDAKKREALYAQ [V3A]	1.81
FVDEYHGDLIEITDAKKREALYAQ [V3D]	2.15
FVFEYHGDLIEITDAKKREALYAQ [V3F]	1.51
FVWEYHGDLIEITDAKKREALYAQ [V3W]	2.12
FVNEYHGDLIEITDAKKREALYAQ [V3N]	3.01
FVMEYHGDLIEITDAKKREALYAQ [V3M]	2.64
FVYEYHGDLIEITDAKKREALYAQ [V3Y]	1.99
FVVEYHGDLICITDAKKREALYAQ [E11C]	3.07
FVVEYHGDLIPITDAKKREALYAQ [E11P]	2.62
FVVEYHGDLINITDAKKREALYAQ [E11N]	2.04
FVVEYHGDLISITDAKKREALYAQ [E11S]	2.25
FVVEYHGDLIDITDAKKREALYAQ [E11D]	2.36
FVVEYHGDLIFITDAKKREALYAQ [E11F]	2.92
FVVEYHGDLILITDAKKREALYAQ [E11L]	3.14
FVVEYHGDLIAITDAKKREALYAQ [E11A]	1.14
FVVEYHGDLIEITDAKTREALYAQ [K17T]	1.6
FVVEYHGDLIEITDAKFREALYAQ [K17F]	2.17
FVVEYHGDLIEITDAKGREALYAQ [K17G]	1.26

Variant	protein stability index
FVVEYHGDLIEITDAKHREALYAQ [K17H]	1.61
FVVEYHGDLIEITDAKAREALYAQ [K17A]	1.59
FVVEYHGDLIEITDAKCREALYAQ [K17C]	2.17
FVVEYHGDLIEITDAKDREALYAQ [K17D]	1.65
FVVEYHGDLIEITDAKMREALYAQ [K17M]	2.46
FVVEYHGDLIEITDAKSREALYAQ [K17S]	1.81
FVVEYHGDLIEITDAKYREALYAQ [K17Y]	1.34
FVVEYHGDLIEITDAKLREALYAQ [K17L]	1.73
FVVEYHGDLIEITDIKKREALYAQ [A15I]	2.04
FVVEYHGDLIEITDEKKREALYAQ [A15E]	2.08
FVVEYHGDLIEITDRKKREALYAQ [A15R]	3.06
FVVEYHGDLIEITDCKKREALYAQ [A15C]	1.67
FVVEYHGDLIEITDWKKREALYAQ [A15W]	2.37
FVVEYHGDLIEITDYKKREALYAQ [A15Y]	1.13
FVVEYHGDLIEITDNKKREALYAQ [A15N]	1.43
FVVEYHGDLIEITDSKKREALYAQ [A15S]	1.88
FVVEYHGDLIEITDTKKREALYAQ [A15T]	1.51
FVVGYHGDLIEITDAKKREALYAQ [E4G]	3.07
FVVWYHGDLIEITDAKKREALYAQ [E4W]	1.44
FVVRYHGDLIEITDAKKREALYAQ [E4R]	1.97
FVVTYHGDLIEITDAKKREALYAQ [E4T]	1.74
FVVQYHGDLIEITDAKKREALYAQ [E4Q]	2.69
FVVAYHGDLIEITDAKKREALYAQ [E4A]	2.3
FVVHYHGDLIEITDAKKREALYAQ [E4H]	1.6

Variant	protein stability index
FVVYYHGDLIEITDAKKREALYAQ [E4Y]	1.72
FVVFYHGDLIEITDAKKREALYAQ [E4F]	1.88
FVVNYHGDLIEITDAKKREALYAQ [E4N]	1.92
FVVDYHGDLIEITDAKKREALYAQ [E4D]	2.35
FVVEYHGDLIEITDAKKRWALYAQ [E19W]	1.96
FVVEYHGDLIEITDAKKRNALYAQ [E19N]	1.27
FVVEYHGDLIEITDAKKRRALYAQ [E19R]	2.84
FVVEYHGDLIEITDAKKRLALYAQ [E19L]	3.57
FVVEYHGDLIEITDAKKRPALYAQ [E19P]	1.84
FVVEYHGDLIEITDAKKRQALYAQ [E19Q]	1.7
FPVEYHGDLIEITDAKKREALYAQ [V2P]	4.09
FSVEYHGDLIEITDAKKREALYAQ [V2S]	2.97
FEVEYHGDLIEITDAKKREALYAQ [V2E]	3.73
FKVEYHGDLIEITDAKKREALYAQ [V2K]	3.6
FMVEYHGDLIEITDAKKREALYAQ [V2M]	2.49
FVVEYHGDPIEITDAKKREALYAQ [L9P]	2.26
FVVEYHGDIIEITDAKKREALYAQ [L9I]	1.59
FVVEYHGDSIEITDAKKREALYAQ [L9S]	1.74
FVVEYHGDDIEITDAKKREALYAQ [L9D]	2.91
FVVEYHGDRIEITDAKKREALYAQ [L9R]	1.8
FVVEYHGDKIEITDAKKREALYAQ [L9K]	2.58
FVVEYHGDWIEITDAKKREALYAQ [L9W]	1.47
FVVEYHGDGIEITDAKKREALYAQ [L9G]	1.59
FVVEYHGDLIEIMDAKKREALYAQ [T13M]	1.5

Variant	protein stability index
FVVEYHGDLIEIFDAKKREALYAQ [T13F]	3.25
FVVEYHGDLIEIPDAKKREALYAQ [T13P]	2.65
FVVEYHGDLIEIHDAKKREALYAQ [T13H]	2.02
FVVEYHGDLIEIQDAKKREALYAQ [T13Q]	3.21
FVVEYHGDLIEILDAKKREALYAQ [T13L]	2.63
FVVEYHGDLIEIGDAKKREALYAQ [T13G]	1.41
FVVEYHGDLIEIEDAKKREALYAQ [T13E]	1.76
FVVEYHGDLIEITDAKKREALYGQ [A23G]	1.13
FVVEYHGDLIEITDAKKREALYCQ [A23C]	1.29
FVVEYHGDLIEITDAKKREALYYQ [A23Y]	1.3
FVVEYHGDLIEITDAKKREALYWQ [A23W]	2.12
FVVEYHGDLIEITDAKKREALYNQ [A23N]	1.69
FVVEYHGDLIEITDAKKREALYHQ [A23H]	2.1
FVVEYHGDLIEITDAKKREALYMQ [A23M]	1.83
FVVEYHGDLIEITDAKKREALYLQ [A23L]	2.36
FVVEYHGDLIEITDAKKREDLYAQ [A20D]	2.48
FVVEYHGDLIEITDAKKREMLYAQ [A20M]	1.38
FVVEYHGDLIEITDAKKRERLYAQ [A20R]	1.68
FVVEYHGDLIEITDAKKREWLYAQ [A20W]	1.47
FVVEYHGDLIEITDAKKREYLYAQ [A20Y]	1.71
FVVEYHGDLIEITDAKKREFLYAQ [A20F]	1.39
FVVEYHGDLIEITDAKKREKLYAQ [A20K]	1.85
FVVEYHGDLIEITDAKKRECLYAQ [A20C]	2.08
FVVEYHGDLIEITDAKKREHLYAQ [A20H]	2.64

Variant	protein stability index
FVVEYRGDLIEITDAKKREALYAQ [H6R]	2.18
FVVEYPGDLIEITDAKKREALYAQ [H6P]	2
FVVEYLGDLIEITDAKKREALYAQ [H6L]	2.02
FVVEYQGDLIEITDAKKREALYAQ [H6Q]	2.06
FVVEYFGDLIEITDAKKREALYAQ [H6F]	2.12
FVVEYHGDLIEITDAKKREALLAQ [Y22L]	1.47
FVVEYHGDLIEITDAKKREALVAQ [Y22V]	2.08
FVVEYHGDLIEITDAKKREALPAQ [Y22P]	2.29
FVVEYHGDLIEITDAKKREALKAQ [Y22K]	2.88
FVVEYHGDLIEITDAKKREALGAQ [Y22G]	1.43
FVVEYHGDLIEITDAKKREALIAQ [Y22I]	1.94
FVVEYHGDLIEITDAKKREALSAQ [Y22S]	1.68
FVVEPHGDLIEITDAKKREALYAQ [Y5P]	3.03
FVVEKHGDLIEITDAKKREALYAQ [Y5K]	2.68
FVVEFHGDLIEITDAKKREALYAQ [Y5F]	1.88
FVVEDHGDLIEITDAKKREALYAQ [Y5D]	3.2
FVVEVHGDLIEITDAKKREALYAQ [Y5V]	2.06
FVVEGHGDLIEITDAKKREALYAQ [Y5G]	2.4
FVVEEHGDLIEITDAKKREALYAQ [Y5E]	3.86
FVVEHHGDLIEITDAKKREALYAQ [Y5H]	2.1
FVVERHGDLIEITDAKKREALYAQ [Y5R]	2.67
FVVEYHGDLIEETDAKKREALYAQ [I12E]	2.74
FVVEYHGDLIEVTDAKKREALYAQ [I12V]	2.18
FVVEYHGDLIERTDAKKREALYAQ [I12R]	2.48

Variant	protein stability index
FVVEYHGDLIEDTDAKKREALYAQ [I12D]	2.22
FVVEYHGDLIEFTDAKKREALYAQ [I12F]	2.21
FVVEYHGDLIEKTDAKKREALYAQ [I12K]	2.75
FVVEYHGDLIEGTDAKKREALYAQ [I12G]	1.64
FVVEYHGDLIESTDAKKREALYAQ [I12S]	2.09
FVVEYHGDLIEHTDAKKREALYAQ [I12H]	2.48
FVVEYHQDLIEITDAKKREALYAQ [G7Q]	1.83
FVVEYHMDLIEITDAKKREALYAQ [G7M]	1.08
FVVEYHADLIEITDAKKREALYAQ [G7A]	1.56
FVVEYHFDLIEITDAKKREALYAQ [G7F]	2.87
FVVEYHEDLIEITDAKKREALYAQ [G7E]	2.33
FVVEYHVDLIEITDAKKREALYAQ [G7V]	1.11
FVVEYHPDLIEITDAKKREALYAQ [G7P]	2.65
FVVEYHTDLIEITDAKKREALYAQ [G7T]	1.94
FVVEYHSDLIEITDAKKREALYAQ [G7S]	1.89
FVVEYHGDLIEITDAKKREALYAD [Q24D]	1.77
FVVEYHGDLIEITDAKKREALYAC [Q24C]	1.35
FVVEYHGDLIEITDAKKREALYAS [Q24S]	1.6
FVVEYHGDLIEITDAKKREALYAY [Q24Y]	1.32
FVVEYHGDLIEITDAKKREALYAK [Q24K]	1.86
FVVEYHGDLIEITDAKKREALYAG [Q24G]	1.37
FVVEYHGDLIEITDAKKREALYAH [Q24H]	1.64
FVVEYHGDLDEITDAKKREALYAQ [I10D]	2.58
FVVEYHGDLVEITDAKKREALYAQ [I10V]	1.56

Variant	protein stability index
FVVEYHGDLCEITDAKKREALYAQ [I10C]	1.99
FVVEYHGDLQEITDAKKREALYAQ [I10Q]	2.5
FVVEYHGDLFEITDAKKREALYAQ [I10F]	2.1
FVVEYHGDLSEITDAKKREALYAQ [I10S]	2.21
FVVEYHGDLIEITLAKKREALYAQ [D14L]	1.16
FVVEYHGDLIEITTAKKREALYAQ [D14T]	1.21
FVVEYHGDLIEITKAKKREALYAQ [D14K]	2.58
FVVEYHGDLIEITSAKKREALYAQ [D14S]	1.88
FVVEYHGDLIEITEAKKREALYAQ [D14E]	2.75
FVVEYHGDLIEITRAKKREALYAQ [D14R]	1.72
FVVEYHGDLIEITMAKKREALYAQ [D14M]	1.95
VVVEYHGDLIEITDAKKREALYAQ [F1V]	2.5
NVVEYHGDLIEITDAKKREALYAQ [F1N]	4.78
GVVEYHGDLIEITDAKKREALYAQ [F1G]	4.8
HVVEYHGDLIEITDAKKREALYAQ [F1H]	4.35
MVVEYHGDLIEITDAKKREALYAQ [F1M]	2.71
EVVEYHGDLIEITDAKKREALYAQ [F1E]	4.75
LVVEYHGDLIEITDAKKREALYAQ [F1L]	1.85
TVVEYHGDLIEITDAKKREALYAQ [F1T]	4.14
IVVEYHGDLIEITDAKKREALYAQ [F1I]	2.37
